Data published in US10414796.

How the values were obtained:
[1] = biological target: heterologous livipeptin fraction 4.2HET (HPLC fraction at 4.2 minutes from E. coli transformed with pALVP)
[2] = biological target: T1, heterologous livipeptin fraction 4.4HET (HPLC fraction at 4.4 minutes from E. coli transformed with pALVP)
T1 chain: FR

[3] = biological target: heterologous livipeptin fraction 2.2HET (HPLC fraction at 2.2 minutes from E. coli transformed with pALVP)

B1: papain (protein)
chain: IPEYVDWRQKGAVTPVKNQGSCGSCWAFSAVVTIEGIIKIRTGNLNEYSEQELLDCDRRSYGCNGGYPWSALQLVAQYGIHYRNTYPYEGVQRYCRSREKGPYAAKTDGVRQVQPYNEGALLYSIANQPVSVVLEAAGKDFQLYRGGIFVGPCGNKVDHAVAAVGYGPNYILIKNSWGTGWGENGYIRIKRGTGNSYGVCGLYTSSFYPVKN
anti-proteolytic activity (enzymatic assay) [1]: The anti-proteolytic activity of fractions 2.2, 4.2 and 4.4HET was confirmed through the enzymatic assay described previously, resulting active against papain
anti-proteolytic activity (enzymatic assay) [2]: The anti-proteolytic activity of fractions 2.2, 4.2 and 4.4HET was confirmed through the enzymatic assay described previously, resulting active against papain
anti-proteolytic activity (enzymatic assay) [3]: The anti-proteolytic activity of fractions 2.2, 4.2 and 4.4HET was confirmed through the enzymatic assay described previously, resulting active against papain
